A protein production outcome set (Wang et al. 2014)

Test: label from the status in PepcDB records

Sequence | protein production
MAEDEIVVEEEQSQPQEITPVPPSSSSSPSLVVEDDDEMKLKHLEFIQVAAVYFAACFSTLYELAKDNAGPLKLGVENIEDCVRTVLAPLYEKFHDVPFKLLLFVDRKVDDVFFDVETYVPSLVKQASSQALTVATEVQRTGVVDTTKSIARSVRDKYEPAAEYYAATLWRLLNQLPLFPEVAHLVIPTAFYWSEKYNDAVRYVGDRDYFGAEYLPMIPIEKISDILEQDQCRAD | failed
MLTKLGIKGRELLLTILPASLMAAMLGGYFTWMQLSELQSQLLLRGEMIAQDLAPLSASALGRKDKVLLSRIATQTLEQPDVRAVSFLDVDRSPLAHAGPTMISPTPIGNSSQLLNSTGTDATRYLLPVFGNQRHLTSPIIPAEADTLMGWVDVEISHNGTLLRGYRSLFASLLLIFTGLAITAVVAVRLSRTINGPMSQIKQAVSQLKDGNLETRLPPLGSRELDELASGINRMAATLQNAQEELQMSIDQATEDVRQNLETIEIQNIELDLARKEALEASRIKSEFLANMSHEIRTPLNGILGFTHLLQKSELTPRQFDYLATIEKSADNLLSIINEILDFSKIEAGKLVLDNIPFNLRDLLQDTLTILAPAAHAKHLELVSLVYRDTPLALSGDPLRLRQILTNLVSNAIKFTREGTIVARAMLEDETEEHAQLRISVQDTGIGLSSQDVRALFQAFSQADNSLSRQPGGTGLGLVISKRLIEQMGGEIGVDSTPGEGSEFWISLKLPKAREDKEESLNLPLEGLRAAVLEHHDLARQALEHQLEDCGLHTVVFTNLENLLNGVTAAHETPAAIDLAVLGVTTLEISPERLRQHIWDLENLNCKVMVLCPTTEYALFQLAVHDVYTQLQAKPACTRKLQKALSELIAPRAIRADIAPPLSSRAPRVLCVDDNPANLLLVQTLLEDMGAEVMAVEGGYAAVNAVQQEAFDLVLMDVQMPGMDGRQATEAIRAWEAERGQSSLPIVALTAHAMANEKRSLLQSGMDDYLTKPISERQLAQVVLKWSGLALRNPAPERQNESLEAHVGPLVLDPEEGLRLAAGKADLAADMLAMLLASLDADREAIRVARASQDVQALIERIHRLHGATRYCGVPQLRTACQRAETLLKQDAPHTGDALDDLDKAIVRLETEARVTA | failed
MQTKEKLASLSYLAVKSLLYELNLTPKPGLVDCHNNGAHNDMDFYTFLDSILSLSPFFKKYIEVGWLYHNESPQYLFNQLRKLGIEAEAAMFSATERVNTHKGINFSFALLLGATGSYLAKHIELIQEKRRFMPQDSLTICHLAGEMSMHLIQNDLSHVETKRNLTYGEKLFLQYGLKGLRGEASQGYPSLTQKALPFFRNELLKKQDIQISQLKLLLYLMTFIEDSNIIHRGGIKSWKKVQQEAQTLLEKDLPPYQLKEQLNSYNQILTDRHLSPGGAADLLSLTLYFSFLEQLI | failed
AVGKNKGLSKGGKKGGKKKVVDPFSRKDWYDVKAPNMFQTRQIGKTLVNRTQGQRIASDYLKGRVFEVSLADLQKDIDPERSFRKFRLIAEDVQDRNVLCNFHGMDLTTDKYRSMVKKWQTLIEAIVEAKTVDGYLLRVFCIGFTAKDQQSQRKTCYAQQSQVRKIRARMTDIITNEVSGADLKQLVNKLALDSIAKDIEKSCQRIYPLHDVYIRKVKVLKKPRFDVSKLLELHGDGGGKSVEAVVSSEGAVIDRPEGYEPPVQESV | failed
MKAYTKLLASLVLLSGAYGAPGFANTPELSDKTFRTVNKVQELIATEKYADALSKLNSALSSTSKKQYDRAVLLQQMGFLYSLQDDYPKAAKYFADALSLNALPVPVAQQVRYSLAQLYLAEGQFKKSVATMNEWFKIAETTEEKPQAHAYITLASAYVQLEDYKNAIPPAKQAIAMSKEPSESWYQLLMSAHYELKQFKSVAGVLKILTTKYPKNKRYWTQLSGIYMELNQERNALSTLEMAHKMGLLEGEKEYLRLVNFQAYQGVPFRAAKTLQAAFDNGHVERNAKNLETLGSFWQQAQELEQAIDVYQQAYNLAPQAKTQIKIARLMILDKQYTEATKFTQNAAPDAKHEQKGELSYIRGMAYFELNQPSNALKAMKSAAQSPDMRAMASPWINFLESQG | failed
MANKVEHRLSEQQMKALTDLPLVFLITHDQSKSWPITHAISWVYAKDETTIRFAIEADSLLVKTLADHPVFTLIFFADQSTYSLTCTDVAAWETTARLPLKVALYEGQIKEVRDILFYGAAVSDRPRVYKTYDEAAAMQLDQQIQDILKG | not failed
MNFLNENEKKITLIPPPEFVQYVGGHFEEVGKEFMQYFIEIGNLKSNETVLDVGCGIGRMAVPLMNYLSDDGTYYGFDLFNKGITWCKNNISTRRNNFHFEHVDIYNQFYNPDGKEDASQYKFPYEDESFDFIFLTSVFTHLLPKELEHYVREIARVLKKDGRCFITFFLINPESSYYLNAGLSPLGFYHQIDNCYVLNKDIPNFAVAYPEEDIRTLLNKYGLEMQTPPHYGSWCGRTEHTSYQDIILAQKISER | failed
MRRTRRPRFVLMNKMDDLNLHYRFLNWRRRIREIREVRAFRYQERFKHILVDGDTLSYHGNSGEVGCYVASRPLTKDSNYFEVSIVDSGVRGTIAVGLVPQYYSLDHQPGWLPDSVAYHADDGKLYNGRAKGRQFGSKCNSGDRIGCGIEPVSFDVQTAQIFFTKNGKRVGSTIMPMSPDGLFPAVGMHSLGEEVRLHLNAELGREDDSVMMVDSYEDEWGRLHDVRVCGTLLEYLGKGKSIVDVGLAQARHPLSTRSHYFEVEIVDPGEKCYIALGLARKDYPKNRHPGWSRGSVAYHADDGKIFHGSGVGDPFGPRCYKGDIMGCGIMFPRDYILDSEGDSDDSCDTVILSPTARAVRNVRNVMYLHQEGEEEEEEEEEEEDGEEIEPEHEGRKVVVFFTRNGKIIGKKDAVVPSGGFFPTIGMLSCGEKVKVDLHPLSG | not failed
MSDAVEEAEARAVEPVGAKQRDAFISYSQSKNAPLAKQLQRGLERLAVSRFRPMRMSVFRDVTSLPANHDLWQSIQRELARSRYFILLASPEAAASPWVAREVDYWLRERDTEHLLIAVASGEIVWDDRAGDFDWRKTTSLPRNLAGHFTAAPLWVDLREIGERSHHSMRYPPFRAAVATLASPLHGRPKEELEHDDFRQLRFVKRLSWSGVALLVALLVLAVYGFFDASRQREAALSQARTSASQALAARSGQLLGTSPNQAAQYALYAEETRSTPESRRALAQAVTAAPYARRRLRADADSVTDMQGASRPAATDVVLSGDGTTAAYRSVFDDDRAVRLYDVPSARQSRVVRAEGTPRALSRDGRVLAMEVYLNRVQLWDTRSGRLLSTMATGHTENLPHVGHGLHALALSPDGRWVAASHYTPEGEAFAVVWRASDGREITRVPVSDARVGLGFSADGSRLTLVDQDRREVREFRTDSARWEAARSLPGMPGSTAEALRYSEVLLFDGARKALTRTSERAEVWDLEQRRRIAVRSLGPYEDMTVADDKGIFLLGGQDGTVRLYDAALRPGTTLGRLTRPASTIAMSADGTQVVVASYGGELNLFTTGVRRGQQVAFDEKDFTFGDLTPDGRMAVHRSEGRTEFWDPATGRRLGVIPYANLSVNLEDTAYTLSGDKRYVGMQSVEGFEDEGRFDVWDLRTGRRTDCGTAVGGSSFSPIRRPGLSFLPGDRYVVGEWNGAVELLDTRTCTRSTVTEDSGRFALSGDRRTLVLLNDDGVDTWRWDGDHAFARAARTTLPSEAHPVDMSVDHEGRQAAFSDRESHVYVVRLDSGERVRATGYLPDKTDAVAFSRDGRLLFQGFMTESTRGVRVLDAGSGDQLDIWTTDPPTGSVQPNEGMQVVPGPADDILTLGPDHKVVRRTVGVGAWHDLLCGLVSQPLPARERDRYLKDLDVEDPCR | failed
MTVKHLAIAPEGKKSLRLSWTNVAFFTTIHALALLAPWFFSWSALGLLLFLHWLFGSIGICLGYHRLLSHKSFQVPKWLEYAIATIGALAMQGGPIFWIGGHRQHHAHTEDVYLDPYSSQRGFWWSHMLWILYPRSEFFDYEIYQKYAPDLARQPFYRWLDRYFLLLQIPFGLMLYAIGGWSFVIYGVVLRAVLLWHSTWFVNSATHMWGYRTFNADDNARNLWWVSIVTYGEGWHNNHHTYPNVAKAGFQWWEVDVTWWSIKLLQTLGLAKKVVLPPSQRMNQG | failed
SASKRWSPPRGIHFTVEEGDLGFTLRGNTPVQVHFLDPHCSASLAGAKEGDYIVSIQGVDCKWLTVSEVMKLLKSFGGEEVEMKVVSLLDSTSSMHNK | not failed
TSTMGNLQTAINDKSGTLASQNFLDADEQKRNAYNQAVSAAETILNKQTGPNTAKTAVEQALNNVNNAKHALNGTQNLNNAKQAAITAINGASDLNQKQKDALKAQANGAQRVSNAQDVQHNATELNTA | not failed
MNKLLLVAAGGAVGSVARYLVGVGAMRVMGPGWPYGTFTVNVVGGFLMGCLASWLAHRGNTSSETWRVMLGVGVLGGFTTFSSFSLETALMIQKRAYGQAFTYSAASVLLAIAALFAGLLVARKVFA | failed
